B1: Mycobacterium tuberculosis toxin protein VapC26 (enzyme)
chain: MIIDTSALLAYFDAAEPDHAAVSECIDSSADALVVSPYVVAELDYLVATRVGVDAELAVLRELAGGAWELANCGAAEIEQAARIVTKYQDQRIGIADAANVVLADRYRTRTILTLDRRHFSALRPIGGGRFTVIP

How the values were obtained:
[1] = target: the molecule itself; test: crystal structure and size exclusion chromatography with MALS; VapB26 homodimer
[2] = target: B1; test: size exclusion chromatography with multi-angle light scattering
[3] = target: the molecule itself; test: crystal structure; VapC26 homodimer

Row | Binder | binding result [1] | binding result [2] | binding result [3]
1 | Mycobacterium tuberculosis antitoxin protein VapB26 (other) MDKTTVYLPDELKAAVKRAARQRGVSEAQVIRESIRAAVGGAKPPPRGGLYAGSEPIARRVDELLAGFGER | binds | binds | 
2 | B1 |  |  | binds
